experiment: soluble on expression in E. coli; label from the status in PepcDB or PDB records

Soluble on expression in E. coli, not soluble:
MGSDKIHHHHHHMSNTGSLSYLRILDFTGEIGPYAAKLYAGLGADVIHIEPIAGDTLRSTGPFFGNRPGKERSMQFIYYNAGKRGLVLDLKKEKGKEVFVDLCKGADILFESFTPGYLDELGLSFDVLSAANPKLVQTSITPFGSFGPYSTYPGSDLTCSALGGFLYLAGIDNDKPVRACDNQAYRMAEVYAAVGSSIALLFAQKTGVGQFVDVSCMEAVGMALETAAQCWDLEGTLRRGRGKEAGSATIHPCKDGFIAIVAIVGRNKTMWTPFVQWMKEEGVEEWELFDNDNWINASYRESKAGYELFCRIFERFTMKHTKQYLYDAGQAHRVAVSPVSNGKDLLENPQLNHHDFWQRLYHEPVGAEVVCPGAPYEFGHLKWRLGDFAPTFGQHTAEVLGECGYSRSEIDALDREGVVHVAKS
MGSDKIHHHHHHMSQILQNFIKQAQYNPLHSLEEWEEDLLNRYPDPHSIVKEGKTTQEYRNYETPTRETVKEFYRLNHINQTYNFVLEKEKNFLKFDKKEMSVWDAVEFLNQLVDDSDPDTEMDQLQHLLQTSEAIRADGHPDWMVLTGFFHDMGKVLCLFGEPQWATVGDTYPVGCAFSDKIVFSEFFQENPDYNNPNYNTKYGIYEPNCGLINVHISWGHDEYFYQMMKNYLPEPALYMLRYHSFYPQHRENAYKHLMDNHDREMFKWVKLFNPYDLYSKNPTPPDWQKLRPYYEDLVAKYLPATLKF
MGSDKIHHHHHHMSQQRPDRIKQMLHYLWQHRHLSTQQAIELFGYAEATVRRDFHYIASRYPGMVRGHGCIDFDDSTEDKEYVFDVKRTLQSEAKREIAALARTFIKDGDCFFLDSGSTCLELAKCLVDAKVKVICNDIKIANELGGFPHVESYIIGGLIRPGYFSVGESLALEMINAFAVERAFISCDALSIETGITNATMFEVGVKTRIIQRSREVILMADHSKFDTVEPHAVATLSCITTILSDSALPSAIARRYQQAGCRLIMSDPSSGAR
MGSDKIHHHHHHMSRRDEGNMVADAGALLPNGDTVSTDAIKVPAGRVNRLMRLGGLAAGIAGGATLQAIAGIARGTRPDARSLLASPANVRRVADELARMRGAAMKIGQLLSMDAGEVLPPELAQILARLRDRAHIMPPSQLGQVLEREWGAGWRRQFKRFDVRPIAAASIGQVHRARTRDGRDLAIKVQYPGVARSIDSDVSNVGALLRLSGLLPKGFDISPYLAEARRQLHEETDYAREGAQLKRFAEWLTDSDTFVVPQYHADLSTAQILAMSYVAGQPIETLADADAATRNRVMTALVDLSLREVFHFGAMQSDPNFANYRYVPQSGRIVLLDFGAARDLHPLVTKSYADMLRSGLVGDDHGIWDAARALGLISDGPDIGSSEARLLALIAGVFEVLRAQEFDFADQTLIRALNEEGMALAQSGYHPPSLPMDVLYLQRKFGGLFLLGNRLRTKLCLRDIIDPYL
MGSDKIHHHHHHMSRTLVLFDIDGTLLKVESMNRRVLADALIEVYGTEGSTGSHDFSGKMDGAIIYEVLSNVGLERAEIADKFDKAKETYIALFRERARREDITLLEGVRELLDALSSRSDVLLGLLTGNFEASGRHKLKLPGIDHYFPFGAFADDALDRNELPHIALERARRMTGANYSPSQIVIIGDTEHDIRCARELDARSIAVATGNFTMEELARHKPGTLFKNFAETDEVLASILTPKHS
MGSDKIHHHHHHMSRYLEMLSLFGVAGAHPGGLAFSKAVLQKAAPSPDQPILDAGCGTGQTAAYLGHLLYPVTVVDKDPIMLEKAKKRFANEGLAIPAYQAELEHLPFSSESFSCVLSESVLSFSRLTSSLQEISRVLKPSGMLIGIEAALKKPMPPAEKKQMMDFYGFTCLHEESEWHKLLRSYGFQKTEAMSLLPEDMEFEPTTEMDLSQTIDPIYYDTLQTHYQLMQLYSEYMGHCIFIAYK
MGSDKIHHHHHHMSSEHQLLVGLLKKLKADALVLPTLPEVAMRVQEVVSRPDSSPKQVAEIIGQDAAISARMIKVANSAMYSRGIKAENINAAVTRIGLTQIKAIATSVAMEQLFISTNEMVWEVMDEVWRASIEVTSAACALLLKYSKTHKGCGLNYDTLTLASLVHNIGALPVLTEAEANPHLFTSIEQLRALVRKMQGPLGRAVLKSWDFSPEVTEVVERWADLPYLPEQVTYLDFVRAAAFYTGELRAGHDLEERLDVFLQRGLPVSPEYLGSDEFLDNYHSIKLSYE
MGSDKIHHHHHHMSSGITPPLIAGNLALDFINTQFGVGADRYECLNDDSSVVEWLHQAGVLNDTLAAPPAGLVERARELREDMQTLIVSAREGRGADPAIVNQVLERGHPIERLEWVPAYAAFQKQTYRRDLTSESLLQPVAQALVELLTKEDLHLVKECQAPDCVLLFHDQTKSHRRRWCSMASCGNRMKAAAHRARKSAT

Source: the DeepSol protein solubility set
